Results as given in article PMC10786891, “Massively parallel profiling of RNA-targeting CRISPR-Cas13d”.
Substitutions are numbered along the chain they refer to. Names and notes keep the numbering of the source.

T1: EsCas13d, nuclease-dead (Eubacterium siraeum, UniProt B0MS50, R295A;H300A;R849A;H854A)
T1 sequence: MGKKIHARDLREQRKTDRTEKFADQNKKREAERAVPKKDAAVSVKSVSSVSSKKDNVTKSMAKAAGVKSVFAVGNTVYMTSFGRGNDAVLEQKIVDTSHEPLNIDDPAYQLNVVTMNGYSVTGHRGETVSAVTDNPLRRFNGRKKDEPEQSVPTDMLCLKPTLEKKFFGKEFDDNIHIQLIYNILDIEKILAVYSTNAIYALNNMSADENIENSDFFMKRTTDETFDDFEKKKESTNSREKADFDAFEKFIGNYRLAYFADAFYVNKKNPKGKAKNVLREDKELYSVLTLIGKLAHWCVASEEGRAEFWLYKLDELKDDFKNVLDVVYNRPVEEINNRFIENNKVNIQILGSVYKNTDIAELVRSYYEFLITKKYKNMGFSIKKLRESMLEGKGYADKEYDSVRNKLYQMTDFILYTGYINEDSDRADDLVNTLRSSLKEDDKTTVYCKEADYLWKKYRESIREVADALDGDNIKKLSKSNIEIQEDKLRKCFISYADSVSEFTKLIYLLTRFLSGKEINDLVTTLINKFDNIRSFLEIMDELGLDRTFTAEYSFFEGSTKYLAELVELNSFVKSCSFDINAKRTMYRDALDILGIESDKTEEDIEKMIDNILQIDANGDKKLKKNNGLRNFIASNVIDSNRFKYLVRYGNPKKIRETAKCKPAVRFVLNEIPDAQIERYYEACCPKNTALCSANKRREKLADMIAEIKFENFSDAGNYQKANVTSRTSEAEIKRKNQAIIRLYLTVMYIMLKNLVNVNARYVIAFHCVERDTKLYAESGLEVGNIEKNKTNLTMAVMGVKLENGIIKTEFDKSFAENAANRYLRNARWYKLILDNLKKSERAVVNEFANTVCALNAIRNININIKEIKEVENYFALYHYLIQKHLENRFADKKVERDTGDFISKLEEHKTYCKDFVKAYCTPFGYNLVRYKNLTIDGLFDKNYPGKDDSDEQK

B1: target 3 insG 3' of 8,insC 3' of 4 (mixed)
RNA 1: CACCCGUGCAAAAUUGCAGGGGUCUAAAACGACCUGAAUAUUUCAGAUCAAA
RNA 2: GGGAAUGGAUCCACAUCUACGAAUUCGUUUUUGAUCUGAAAUAUGUCAGCGUCUGCAGAUCGGAAGAGCACACGU
B2: target 3 insU 3' of 6,insG 3' of 6 (mixed)
RNA 1: B1 RNA 1
RNA 2: B1 RNA 2 with G45U, U46C, C47U, A48G, G49A, C50G
B3: target 3 insC 3' of 3,insA 3' of 2 (mixed)
RNA 1: B1 RNA 1
RNA 2: B1 RNA 2 with G45U, U46C, C47A, A48G, G51U, U52A
B4: target 3 A12G (mixed)
RNA 1: B1 RNA 1
RNA 2: GGGAAUGGAUCCACAUCUACGAAUUCGUUUUUGAUCUGAGAUAUUCAGGUCUGCAGAUCGGAAGAGCACACGU
B5: target 3 insU 3' of 4,insU 3' of 4 (mixed)
RNA 1: B1 RNA 1
RNA 2: B1 RNA 2 with G45U, U46C, C47A, A48G, G49U, C50U
B6: target 3 insA 3' of 6,insA 3' of 3 (mixed)
RNA 1: B1 RNA 1
RNA 2: B1 RNA 2 with G45U, U46C, C47A, C50G, G51A
B7: target 3 C1A,A5U (mixed)
RNA 1: B1 RNA 1
RNA 2: B4 RNA 2 with G40A, A47U, C51A
B8: target 3 insC 3' of 22,insG 3' of 5 (mixed)
RNA 1: B1 RNA 1
RNA 2: GGGAAUGGAUCCACAUCUACGAAUUCGUUUCUUGAUCUGAAAUAUUCAGGGUCUGCAGAUCGGAAGAGCACACGU
B9: target 3 A5U (mixed)
RNA 1: B1 RNA 1
RNA 2: B4 RNA 2 with G40A, A47U
B10: target 3 U21G,U22A (mixed)
RNA 1: B1 RNA 1
RNA 2: B4 RNA 2 with U30A, U31G, G40A
B11: target 3 insG 3' of 22,insU 3' of 3 (mixed)
RNA 1: B1 RNA 1
RNA 2: B8 RNA 2 with C31G, G51U
B12: target 3 insG 3' of 6,insU 3' of 4 (mixed)
RNA 1: B1 RNA 1
RNA 2: B1 RNA 2 with G45U, U46C, C47G, C50U
B13: target 3 insG 3' of 7,insA 3' of 2 (mixed)
RNA 1: B1 RNA 1
RNA 2: B1 RNA 2 with G45U, U46G, C50G, G51U, U52A
B14: target 3 G3A,G4C (mixed)
RNA 1: B1 RNA 1
RNA 2: B4 RNA 2 with G40A, G48C, G49A
B15: target 3 C1G,U21A (mixed)
RNA 1: B1 RNA 1
RNA 2: B4 RNA 2 with U31A, G40A, C51G
B16: target 3 insA 3' of 20,insU 3' of 19 (mixed)
RNA 1: B1 RNA 1
RNA 2: GGGAAUGGAUCCACAUCUACGAAUUCGUUUUUAGUAUCUGAAAUAUUCAGGUCUGCAGAUCGGAAGAGCACACGU
B17: target 3 G4U,U8C (mixed)
RNA 1: B1 RNA 1
RNA 2: B4 RNA 2 with G40A, U44C, G48U
B18: target 3 C1U,A5U (mixed)
RNA 1: B1 RNA 1
RNA 2: B4 RNA 2 with G40A, A47U, C51U
B19: target 3 C1U,A11G (mixed)
RNA 1: B1 RNA 1
RNA 2: B4 RNA 2 with G40A, A41G, C51U
B20: target 3 C1A,A11G (mixed)
RNA 1: B1 RNA 1
RNA 2: B4 RNA 2 with G40A, A41G, C51A
B21: target 3 insA 3' of 6,insG 3' of 6 (mixed)
RNA 1: B1 RNA 1
RNA 2: B1 RNA 2 with G45U, U46C, C47A, A48G, G49A, C50G
B22: target 3 insC 3' of 18,insC 3' of 11 (mixed)
RNA 1: B1 RNA 1
RNA 2: B16 RNA 2 with A33G, G34A, U35C, A36U, U37C, C38U, U39G, G40A, A43C
B23: target 3 U2A,U8G (mixed)
RNA 1: B1 RNA 1
RNA 2: B4 RNA 2 with G40A, U44G, U50A
B24: target 3 C1U,C6A (mixed)
RNA 1: B1 RNA 1
RNA 2: B4 RNA 2 with G40A, C46A, C51U
B25: target 3 insC 3' of 5 (mixed)
RNA 1: B1 RNA 1
RNA 2: GGGAAUGGAUCCACAUCUACGAAUUCGUUUUUGAUCUGAAAUAUUCACGGUCUGCAGAUCGGAAGAGCACACGU
B26: target 3 G3U,U22G (mixed)
RNA 1: B1 RNA 1
RNA 2: B4 RNA 2 with U30G, G40A, G49U
B27: target 3 insA 3' of 22,insA 3' of 8 (mixed)
RNA 1: B1 RNA 1
RNA 2: B8 RNA 2 with C31A, U46A, C47U, A48C, G49A
B28: target 3 U2G,A5C (mixed)
RNA 1: B1 RNA 1
RNA 2: B4 RNA 2 with G40A, A47C, U50G
B29: target 3 G4A,U22G (mixed)
RNA 1: B1 RNA 1
RNA 2: B4 RNA 2 with U30G, G40A, G48A
B30: target 3 A13G,U22A (mixed)
RNA 1: B1 RNA 1
RNA 2: B4 RNA 2 with U30A, A39G, G40A
B31: target 1 insG 3' of 21,insA 3' of 2 (mixed)
RNA 1: CACCCGUGCAAAAAUGCAGGGGUCUAAAACUGAGCGGAUAACCUCUCUAUGG
RNA 2: GGGAAUGGAUCCACAUCUACGAAUUCGUACCGAUAGAGAGGUUAUCCGCUCAACCGAGAUCGGAAGAGCACACGU
B32: target 1 insC 3' of 22,insU 3' of 6 (mixed)
RNA 1: B31 RNA 1
RNA 2: B31 RNA 2 with G32C, G48U, C49G, U50C, C51U, A52C
B33: target 1 insG 3' of 21,insG 3' of 1 (mixed)
RNA 1: B31 RNA 1
RNA 2: B31 RNA 2 with A53G

Molecular target: T1, EsCas13d, nuclease-dead
Test: crRNA (strand 1, pre-loaded); Mg2+; 40 mM Tris-HCl pH 7.5, 150 mM NaCl, 6 mM MgCl2, 1 mM DTT, 0.1% Tween-20, 0.2 mg/ml BSA; 25 C; 10 min per concentration, then washed
Details: tags: His6-TwinStrep-SUMO cleaved; N-terminal SNAP kept (SNAP-Surface 488); label: 3' end held by stalled T7 RNA polymerase

Binder	Kd [nM]
B1	38.5 ± 8
B2	8.7 ± 0.95
B3	18.6 ± 2.2
B4	43 ± 7.5
B5	14.5 ± 1.2
B6	6.15 ± 0.6
B7	5.9 ± 1
B8	93.5 ± 26
B9	65.5 ± 14.5
B10	57.5 ± 15.5
B11	68 ± 26
B12	11.3 ± 1.2
B13	32.5 ± 5.75
B14	9.25 ± 0.85
B15	44.5 ± 10.5
B16	62.5 ± 14.5
B17	39 ± 5

Binder	Kd [nM]
B18	12.9 ± 3.05
B19	55.5 ± 13
B20	41 ± 14.5
B21	41 ± 4.5
B22	37 ± 5
B23	29.8 ± 3.4
B24	59 ± 21
B25	19.2 ± 1.75
B26	94 ± 21.5
B27	98.5 ± 35.5
B28	120 ± 32.5
B29	56.5 ± 9
B30	43 ± 15
B31	54 ± 13
B32	20 ± 2
B33	66 ± 10
